Columns and labels:
[1] = molecular target: Stx1 (type-I Shiga toxin, recombinant holotoxin) (EHEC O157:H7) (UniProt P08026); test: ELISA, plates coated with Stx1, serum titer
[2] = molecular target: Stx2 (type-II Shiga toxin, recombinant holotoxin) (EHEC O157:H7) (UniProt P09386); test: ELISA, plates coated with Stx2, serum titer

Substance: serum of the placebo control PBS group (BALB/c mice) (antibody)
- titer of serum IgA and IgG [1]: < 2
- titer of serum IgA and IgG [2]: < 2

— patent EP2620453B1
